Measurements as given in patent publication US20240209092A1 (ADAGENE, published 2024).
Substitutions are numbered along the chain they refer to.

How the values were obtained:
[1] = target: T1, recombinant human CTLA4 protein (extracellular domain) (human, UniProt P16410 36-161); test: ELISA, recombinant human CTLA4 extracellular domain coated on the plate, captured antibody detected with HRP-labeled anti-human IgG (Fab specific), absorbance at 450 nm
T1 construct: extracellular domain
T1 sequence (looked up): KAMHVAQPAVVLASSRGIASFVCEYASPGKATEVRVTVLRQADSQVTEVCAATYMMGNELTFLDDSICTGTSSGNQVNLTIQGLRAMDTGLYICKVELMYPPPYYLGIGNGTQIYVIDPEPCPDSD

[2] = target: T2, recombinant rat CTLA4 protein (extracellular domain) (rat, UniProt Q62859 36-161); test: ELISA, recombinant rat CTLA4 extracellular domain coated on the plate, captured antibody detected with HRP-labeled anti-human IgG (Fab specific), absorbance at 450 nm
T2 sequence: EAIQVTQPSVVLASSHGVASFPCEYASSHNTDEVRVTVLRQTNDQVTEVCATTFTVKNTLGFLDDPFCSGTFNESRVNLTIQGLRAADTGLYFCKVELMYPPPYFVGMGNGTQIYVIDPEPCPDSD

[3] = target: T3, recombinant cynomolgus monkey CTLA4 protein (extracellular domain) (cynomolgus monkey, UniProt G7PL88 36-161); test: ELISA, CTLA4 extracellular domain coated, HRP anti-human IgG (Fab specific) detection
T3 sequence: T1 sequence (looked up) with S14N, I18T, L106M

[4] = target: T2, recombinant rat CTLA4 protein …; test: as above
[5] = target: T4, recombinant mouse CTLA4 protein (extracellular domain) (mouse, UniProt P09793 36-161); test: as above
T4 construct: extracellular domain

[6] = target: T1, recombinant human CTLA4 protein …; test: as above
[7] = target: T4, recombinant mouse CTLA4 protein …; test: ELISA, recombinant mouse CTLA4 extracellular domain coated on the plate, captured antibody detected with HRP-labeled anti-human IgG (Fab specific), absorbance at 450 nm
[8] = target: T3, recombinant cynomolgus monkey CTLA4 …; test: ELISA, CTLA4 extracellular domain coated; reference masked TY22404
[9] = target: T2, recombinant rat CTLA4 protein …; test: as above
[10] = target: T4, recombinant mouse CTLA4 protein …; test: as above
[11] = target: T1, recombinant human CTLA4 protein …; test: as above
[12] = target: T5, human CTLA4 expressed on cells (human, UniProt P16410 36-223); test: cell-based or functional assay
T5 sequence (looked up): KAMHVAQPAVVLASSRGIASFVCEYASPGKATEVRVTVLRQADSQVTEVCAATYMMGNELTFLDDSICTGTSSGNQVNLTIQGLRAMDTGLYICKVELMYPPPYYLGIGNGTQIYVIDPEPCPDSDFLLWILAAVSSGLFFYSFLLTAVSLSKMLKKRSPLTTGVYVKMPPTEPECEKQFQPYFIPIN

[13] = target: T3, recombinant cynomolgus monkey CTLA4 …; test: ELISA, recombinant cynomolgus monkey CTLA4 extracellular domain coated on the plate, captured antibody detected with HRP-labeled anti-human IgG (Fab specific), absorbance at 450 nm

B1: activated TY22404 by condition 2 (antibody)
heavy: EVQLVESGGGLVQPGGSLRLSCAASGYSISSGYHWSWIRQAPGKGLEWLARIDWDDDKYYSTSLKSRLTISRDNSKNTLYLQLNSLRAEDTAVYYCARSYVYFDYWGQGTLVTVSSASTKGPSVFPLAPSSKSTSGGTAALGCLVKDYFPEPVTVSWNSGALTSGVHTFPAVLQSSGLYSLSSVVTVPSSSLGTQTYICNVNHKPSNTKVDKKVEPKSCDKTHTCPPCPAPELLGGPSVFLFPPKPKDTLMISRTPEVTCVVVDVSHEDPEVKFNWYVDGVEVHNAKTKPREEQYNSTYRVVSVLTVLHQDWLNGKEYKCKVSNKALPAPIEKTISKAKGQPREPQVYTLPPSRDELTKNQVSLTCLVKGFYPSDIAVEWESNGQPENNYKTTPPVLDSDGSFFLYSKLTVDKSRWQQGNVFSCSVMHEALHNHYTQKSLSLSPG
light: DIQLTQSPSSLSASVGDRVTITCRASQSVRGRFLAWYQQKPGKAPKLLIYDASNRATGIPSRFSGSGSGTDFTLTISSLQPEDFATYYCQQSSSWPPTFGQGTKVEIKRTVAAPSVFIFPPSDEQLKSGTASVVCLLNNFYPREAKVQWKVDNALQSGNSQESVTEQDSKDSTYSLSSTLTLSKADYEKHKVYACEVTHQGLSSPVTKSFNRGEC
notes: IgG1; also called cleaved TY22404; not shown: remnant of the cleavable linker left after cleavage
With B1 as the binder, how does the “EC50 (read off the curve)” value [1] read?
Its value is about 0.3 nM.

What about the “EC50 (read off the curve)” value [2] of the same binder?
The value was about 0.3 nM.

What about the EC50 [3] of the same binder?
Its EC50 is about 0.3 nM.

And the EC50 [4]?
Its EC50 is about 0.3 nM.

And the EC50 [5]?
Its EC50 is about 0.3 nM.

What about the EC50 [6] of the same binder?
The EC50 was about 0.3 nM.

What about the “EC50 (read off the curve)” value [7] of the same binder?
Its value is about 0.3 nM.

And the “fold increased affinity compared to masked TY22404” value (“fold increased affinity” below) [8]?
The value was about 40 fold.

What about the “fold increased affinity” value [9] of the same binder?
Its value is over 100 fold.

What about the “fold increased affinity” value [10] of the same binder?
The value was over 300 fold.

What about the “fold increased affinity” value [11] of the same binder?
The value was over 250 fold.

And the “EC50 (read off the curve)” value [12]?
Its value is about 0.7 nM.

And the “EC50 (read off the curve)” value [13]?
Its value is about 0.3 nM.

B2: activated TY22404 by condition 1 (antibody)
heavy: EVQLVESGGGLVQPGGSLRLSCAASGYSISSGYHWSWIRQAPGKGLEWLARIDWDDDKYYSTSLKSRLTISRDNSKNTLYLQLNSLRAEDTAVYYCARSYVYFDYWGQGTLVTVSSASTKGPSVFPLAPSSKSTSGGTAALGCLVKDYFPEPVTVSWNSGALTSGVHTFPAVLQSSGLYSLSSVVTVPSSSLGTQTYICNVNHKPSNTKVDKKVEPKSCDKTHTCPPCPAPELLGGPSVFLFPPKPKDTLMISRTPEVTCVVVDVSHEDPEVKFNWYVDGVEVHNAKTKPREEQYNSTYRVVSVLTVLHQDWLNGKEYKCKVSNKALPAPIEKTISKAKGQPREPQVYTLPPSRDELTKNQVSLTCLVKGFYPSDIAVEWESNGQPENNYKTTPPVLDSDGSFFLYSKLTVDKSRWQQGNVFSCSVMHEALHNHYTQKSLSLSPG
light: B1 light
notes: as for B1
B2 was tested. Which “EC50 (read off the curve)” value [1] did it give?
The value was about 0.3 nM.

And the “EC50 (read off the curve)” value [2]?
Its value is about 0.3 nM.

What about the EC50 [3] of the same binder?
Its EC50 is about 0.3 nM.

And the EC50 [4]?
Its EC50 is about 0.3 nM.

What about the EC50 [5] of the same binder?
The EC50 was about 0.3 nM.

What about the EC50 [6] of the same binder?
The EC50 was about 0.3 nM.

And the “EC50 (read off the curve)” value [7]?
Its value is about 0.3 nM.

What about the “fold increased affinity” value [8] of the same binder?
Its value is about 40 fold.

And the “fold increased affinity” value [9]?
The value was over 100 fold.

And the “fold increased affinity” value [10]?
Its value is over 300 fold.

What about the “fold increased affinity” value [11] of the same binder?
Its value is over 250 fold.

What about the “EC50 (read off the curve)” value [13] of the same binder?
The value was about 0.3 nM.

B3: TY22404 (masked, masking peptide intact) (antibody)
heavy: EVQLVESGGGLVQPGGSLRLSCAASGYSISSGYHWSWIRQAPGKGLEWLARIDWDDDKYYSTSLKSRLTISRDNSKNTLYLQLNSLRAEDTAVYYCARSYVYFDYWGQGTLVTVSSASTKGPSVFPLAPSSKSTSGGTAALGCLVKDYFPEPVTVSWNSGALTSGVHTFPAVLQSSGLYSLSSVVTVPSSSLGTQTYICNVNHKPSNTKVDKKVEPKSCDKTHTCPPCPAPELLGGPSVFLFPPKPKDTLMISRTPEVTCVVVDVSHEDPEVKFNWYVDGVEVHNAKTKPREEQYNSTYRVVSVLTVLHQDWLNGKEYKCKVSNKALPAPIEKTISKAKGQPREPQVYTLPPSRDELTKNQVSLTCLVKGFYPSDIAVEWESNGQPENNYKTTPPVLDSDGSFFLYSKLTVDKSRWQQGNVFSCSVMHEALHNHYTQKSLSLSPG
light: EVGSYPNPSSDCVPYYYACAYSGRSAGGGGTPLGLAGSGGSDIQLTQSPSSLSASVGDRVTITCRASQSVRGRFLAWYQQKPGKAPKLLIYDASNRATGIPSRFSGSGSGTDFTLTISSLQPEDFATYYCQQSSSWPPTFGQGTKVEIKRTVAAPSVFIFPPSDEQLKSGTASVVCLLNNFYPREAKVQWKVDNALQSGNSQESVTEQDSKDSTYSLSSTLTLSKADYEKHKVYACEVTHQGLSSPVTKSFNRGEC
notes: It has the VH and VL of TY21580, with the mask/linker at the N-terminus of the light chain; also called masked TY22404; masking peptide-intact TY22404
Which results are given for B3?
EC50 (read off the curve) [1]: ~70 nM; EC50 (read off the curve) [2]: ~30 nM; EC50 (read off the curve) [7]: ~100 nM; EC50 (read off the curve) [13]: ~10 nM
